Where “and” joins values, the source holds several entries; their conditions need not be identical. Identical values can stand only once.
Columns and labels:
Pol I = Pol I (Bacillus subtilis, UniProt O34996); details: 0.15 M KCl; cited from earlier work
Pol II = details: 0.15 M KCl; cited from earlier work
Pol III-L = Pol III-L (Bacillus subtilis, UniProt P13267); details: Pol III-L, 0.15 M KCl; cited from earlier work
[1] = target: Escherichia coli DNA polymerase III core (Escherichia coli) (UniProt P10443); assay: cell-based or functional assay
[2] = system: singly primed M13mp18 ssDNA; assay: Time course of primer extension on singly primed M13mp18 ssDNA, DnaE polymerase; type: biochemical; details: saturating concentration of DnaE
Description: The S. pyogenes DnaE (α-small) polymerase is more homologous to E. coli a than S. pyogenes PolC. Thus, it seems reasonable to expect that the DnaE polymerase may also function with the β clamp (FIGS. 21A-B). To test DnaE for function with τδδ′ and β, replication reactions contained 70 ng (25 fmol) of 30-mer singly primed M13 mp18 ssDNA, 0.82 μg of S. pyogenes SSB, and 3.3 ng-300 ng of DnaE (25 fmol −2.3 pmol) in 23.5 μl of 20 mM Tris-HCl (pH 7.5), 4% glycerol, 0.1 mM EDTA, 5 mM dithiothreitol (DTT), 40 μg/ml BSA, 2 mM ATP, 8 mM MgCl2, and 60 μM each of dGTP and dCTP. When present, reactions included 43.3 ng of β and 10 ng of τδδ′. Reactions were preincubated for 3 min at 37° C., and then NaCl was added to 40 mM followed by another 2 min at 37° C. DNA synthesis was initiated upon addition of 1.5 μl of 1.5 mM dATP, 0.5 mM [α^32P]-dTTP (specific activity 2,000-4,000 cpm/pmol). Aliquots of 25 μl were removed at the indicated times and quenched with an equal volume (25 μl) of 1% SDS, 40 mM EDTA. One-half of the quenched reaction was analyzed for total deoxynucleotide incorporation using DE81 filter paper and the other half was analyzed on a 0.8% neutral agarose gel. The effect of TMAU was also examined, in which 100 μM TMAU in DMSO (2% DMSO final concentration) was present. In this case, replication was allowed to proceed for 1 min before being quenched with […] of 1% SDS, 40 mM EDTA. […]

[3] = target: Staphylococcus aureus Pol III-L (α-large, polC gene product) (Staphylococcus aureus) (UniProt P0C1P9); assay: cell-based or functional assay
Sequence of Staphylococcus aureus Pol III-L (α-large, polC gene product) (Staphylococcus aureus) (P0C1P9 whole entry): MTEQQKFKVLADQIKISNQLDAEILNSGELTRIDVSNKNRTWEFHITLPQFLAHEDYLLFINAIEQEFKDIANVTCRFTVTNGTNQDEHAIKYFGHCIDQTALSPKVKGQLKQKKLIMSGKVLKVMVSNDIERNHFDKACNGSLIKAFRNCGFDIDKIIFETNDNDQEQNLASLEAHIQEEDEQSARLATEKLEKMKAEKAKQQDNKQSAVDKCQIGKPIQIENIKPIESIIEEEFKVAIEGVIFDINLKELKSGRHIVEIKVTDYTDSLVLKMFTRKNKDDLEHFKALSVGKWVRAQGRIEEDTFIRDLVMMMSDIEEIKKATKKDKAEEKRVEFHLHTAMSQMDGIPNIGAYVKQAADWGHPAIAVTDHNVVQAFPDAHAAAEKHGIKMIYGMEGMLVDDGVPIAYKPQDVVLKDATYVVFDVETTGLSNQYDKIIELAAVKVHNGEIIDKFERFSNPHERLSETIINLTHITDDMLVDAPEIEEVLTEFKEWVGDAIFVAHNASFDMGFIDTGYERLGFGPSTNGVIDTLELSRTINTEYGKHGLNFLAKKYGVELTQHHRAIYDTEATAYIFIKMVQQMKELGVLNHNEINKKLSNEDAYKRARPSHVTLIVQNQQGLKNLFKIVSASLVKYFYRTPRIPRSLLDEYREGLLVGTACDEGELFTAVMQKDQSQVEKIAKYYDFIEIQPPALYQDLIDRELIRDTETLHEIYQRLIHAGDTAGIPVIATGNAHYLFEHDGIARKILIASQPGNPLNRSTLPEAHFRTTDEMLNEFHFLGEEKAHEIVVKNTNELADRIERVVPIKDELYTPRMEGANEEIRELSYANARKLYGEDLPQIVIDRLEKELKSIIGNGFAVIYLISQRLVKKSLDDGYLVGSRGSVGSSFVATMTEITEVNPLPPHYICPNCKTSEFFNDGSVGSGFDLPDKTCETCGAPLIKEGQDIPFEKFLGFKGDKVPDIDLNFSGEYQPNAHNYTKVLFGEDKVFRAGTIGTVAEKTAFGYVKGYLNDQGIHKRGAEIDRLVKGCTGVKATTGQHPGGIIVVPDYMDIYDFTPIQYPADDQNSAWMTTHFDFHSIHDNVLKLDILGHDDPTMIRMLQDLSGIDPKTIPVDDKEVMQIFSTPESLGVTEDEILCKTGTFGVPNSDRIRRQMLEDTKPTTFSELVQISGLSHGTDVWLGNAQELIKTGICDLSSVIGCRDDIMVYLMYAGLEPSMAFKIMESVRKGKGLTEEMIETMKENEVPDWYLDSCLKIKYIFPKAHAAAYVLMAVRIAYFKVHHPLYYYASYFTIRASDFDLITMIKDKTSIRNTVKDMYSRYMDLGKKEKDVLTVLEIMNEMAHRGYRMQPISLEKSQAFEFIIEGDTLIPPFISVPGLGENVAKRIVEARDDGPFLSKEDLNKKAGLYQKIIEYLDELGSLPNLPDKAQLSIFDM

Sequence of Escherichia coli DNA polymerase III core (Escherichia coli) (P10443 whole entry, chain 1 of 3): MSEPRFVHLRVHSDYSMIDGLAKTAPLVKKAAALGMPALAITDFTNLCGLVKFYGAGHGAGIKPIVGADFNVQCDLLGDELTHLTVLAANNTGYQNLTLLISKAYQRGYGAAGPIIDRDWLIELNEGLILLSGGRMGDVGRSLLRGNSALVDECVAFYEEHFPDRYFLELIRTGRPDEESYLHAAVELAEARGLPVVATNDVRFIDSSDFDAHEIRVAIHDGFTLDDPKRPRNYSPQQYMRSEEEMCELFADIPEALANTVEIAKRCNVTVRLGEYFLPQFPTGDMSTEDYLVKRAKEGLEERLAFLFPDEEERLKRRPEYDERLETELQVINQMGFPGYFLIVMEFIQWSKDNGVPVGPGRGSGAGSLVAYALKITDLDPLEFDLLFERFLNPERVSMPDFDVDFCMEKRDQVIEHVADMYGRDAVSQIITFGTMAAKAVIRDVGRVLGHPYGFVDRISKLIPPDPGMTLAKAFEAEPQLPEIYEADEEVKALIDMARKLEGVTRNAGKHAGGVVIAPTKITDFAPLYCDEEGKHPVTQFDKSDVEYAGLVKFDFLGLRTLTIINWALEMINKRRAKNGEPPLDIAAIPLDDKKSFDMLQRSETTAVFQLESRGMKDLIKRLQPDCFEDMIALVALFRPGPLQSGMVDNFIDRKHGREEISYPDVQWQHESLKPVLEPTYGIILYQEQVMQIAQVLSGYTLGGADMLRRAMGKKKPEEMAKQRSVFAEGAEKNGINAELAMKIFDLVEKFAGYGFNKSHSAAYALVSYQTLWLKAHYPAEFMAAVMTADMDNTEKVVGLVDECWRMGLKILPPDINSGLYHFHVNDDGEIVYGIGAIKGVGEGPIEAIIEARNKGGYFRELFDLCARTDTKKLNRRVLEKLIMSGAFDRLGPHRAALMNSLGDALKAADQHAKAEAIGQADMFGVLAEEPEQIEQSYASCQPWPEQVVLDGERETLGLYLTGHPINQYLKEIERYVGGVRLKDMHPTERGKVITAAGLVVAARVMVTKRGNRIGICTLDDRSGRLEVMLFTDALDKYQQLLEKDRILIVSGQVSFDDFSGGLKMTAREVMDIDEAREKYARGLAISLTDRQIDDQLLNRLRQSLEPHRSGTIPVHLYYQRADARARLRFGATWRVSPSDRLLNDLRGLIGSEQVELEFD
Sequence of Escherichia coli DNA polymerase III core (Escherichia coli) (P03007 whole entry, chain 2 of 3, further chain): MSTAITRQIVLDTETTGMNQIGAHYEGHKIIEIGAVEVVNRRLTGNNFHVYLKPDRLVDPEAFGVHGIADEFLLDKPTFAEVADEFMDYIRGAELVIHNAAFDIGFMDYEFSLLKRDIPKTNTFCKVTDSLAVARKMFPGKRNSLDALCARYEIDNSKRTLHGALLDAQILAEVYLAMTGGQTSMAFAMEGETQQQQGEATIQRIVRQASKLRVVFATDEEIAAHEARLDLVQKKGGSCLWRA
Sequence of Escherichia coli DNA polymerase III core (Escherichia coli) (P0ABS8 whole entry, chain 3 of 3, further chain): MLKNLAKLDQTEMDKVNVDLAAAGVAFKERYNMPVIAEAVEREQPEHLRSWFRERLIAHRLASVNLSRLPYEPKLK
Sequence of Pol III-L (P13267 whole entry): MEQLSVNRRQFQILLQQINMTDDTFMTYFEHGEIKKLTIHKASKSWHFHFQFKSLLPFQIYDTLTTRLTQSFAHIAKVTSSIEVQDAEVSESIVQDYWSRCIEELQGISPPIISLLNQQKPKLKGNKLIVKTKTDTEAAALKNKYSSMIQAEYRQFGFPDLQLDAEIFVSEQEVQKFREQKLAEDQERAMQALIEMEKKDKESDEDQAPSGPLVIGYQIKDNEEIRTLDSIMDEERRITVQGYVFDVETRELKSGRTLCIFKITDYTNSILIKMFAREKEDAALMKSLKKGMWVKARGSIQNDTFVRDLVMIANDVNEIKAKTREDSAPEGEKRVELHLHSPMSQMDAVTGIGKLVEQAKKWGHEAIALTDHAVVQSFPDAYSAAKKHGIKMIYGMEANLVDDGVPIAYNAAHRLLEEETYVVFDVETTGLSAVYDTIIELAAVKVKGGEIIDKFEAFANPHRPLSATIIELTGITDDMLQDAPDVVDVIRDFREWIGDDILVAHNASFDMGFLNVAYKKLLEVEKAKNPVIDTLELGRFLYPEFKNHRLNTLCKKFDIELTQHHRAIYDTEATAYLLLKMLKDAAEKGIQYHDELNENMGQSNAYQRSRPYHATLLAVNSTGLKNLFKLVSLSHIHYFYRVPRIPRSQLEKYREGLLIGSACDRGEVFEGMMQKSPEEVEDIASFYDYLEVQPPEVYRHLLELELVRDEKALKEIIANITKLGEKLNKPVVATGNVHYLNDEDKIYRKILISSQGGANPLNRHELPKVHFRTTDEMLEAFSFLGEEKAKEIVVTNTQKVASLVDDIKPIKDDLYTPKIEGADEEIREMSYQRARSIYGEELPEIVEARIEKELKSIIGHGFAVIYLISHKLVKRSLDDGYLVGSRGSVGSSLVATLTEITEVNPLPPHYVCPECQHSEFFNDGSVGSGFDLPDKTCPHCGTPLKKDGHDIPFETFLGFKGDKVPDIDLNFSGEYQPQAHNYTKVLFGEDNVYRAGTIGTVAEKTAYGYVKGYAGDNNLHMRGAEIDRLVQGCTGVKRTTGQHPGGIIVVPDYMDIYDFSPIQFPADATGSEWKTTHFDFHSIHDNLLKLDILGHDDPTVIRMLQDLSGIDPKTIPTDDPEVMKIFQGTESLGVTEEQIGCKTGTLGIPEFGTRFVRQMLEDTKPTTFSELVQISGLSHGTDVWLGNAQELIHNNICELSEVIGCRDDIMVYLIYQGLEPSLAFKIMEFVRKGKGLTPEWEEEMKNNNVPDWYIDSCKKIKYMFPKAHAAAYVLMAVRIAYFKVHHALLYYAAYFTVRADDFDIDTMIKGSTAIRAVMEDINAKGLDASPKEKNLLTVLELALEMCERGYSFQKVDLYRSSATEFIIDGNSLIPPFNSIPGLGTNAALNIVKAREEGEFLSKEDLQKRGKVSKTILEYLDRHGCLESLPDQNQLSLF

Q: With `[Cl-].[K+]` [KCl] as the molecule, how does the “Expected characteristics: inhibition by 0.15 M KCl” value (Pol I) read?
A: not inhibited (Not inhibited is defined as greater than 75% remaining activity)

Q: And the “Expected characteristics: inhibition by 0.15 M KCl” value (Pol II)?
A: not inhibited (Not inhibited is defined as greater than 75% remaining activity)

Q: And the “Expected characteristics: inhibition by 0.15 M KCl” value (Pol III-L)?
A: not inhibited (Not inhibited is defined as greater than 75% remaining activity)

Q: With “Escherichia coli beta subunit of DNA polymerase III holoenzyme (from UniProt P0A988 1-366)” as the molecule, how does the Total DNA synthesis on polydA-oligodT, lane 6 (E. coli Pol III core with E. coli beta; lane 5 without beta 0.97 pmol) [1] read?
A: 28.1 pmol

Q: And the stimulation of DNA synthesis by E. coli core on linear polydA-oligodT [1]?
A: > 10 fold

B1: DnaE polymerase: S. pyogenes DnaE (α-small) polymerase encoded by dnaE, SEQ. ID. No. 20 (protein)
chain: MFAQLDTKTVYSFMDSLIDLNHYFERAKQFGYHTIGIMDKDNLYGAYHFIKGCQKNGLQPVLGLEIEILYQERQVLLNLIAQNTQGYHQLLKISTAKMSGKLHMDYFCQHLEGIAVIIPSKGWSDTLVVPFDYYMGVDQYTDLSHMDSKRQLIPLRTVRYFAQDDMETLHMLHAIRDNLSLAETPVVESDQELADCQQLTAFYQTHCPQALQNLEDLVSGIYYDFDTNLKLPHFNRDKSAKQELQDLTEAGLKEKGLWKEPYQSRLLHELVIISDMGFDDYFLIVWDLLRFGRSKGYYMGMGRGSAAGSLVAYALNITGIDPVQHDLLFERFLNKERYSMPDIDIDLPDIYRSEFLRYVRNRYGSDHSAQIVTFSTFGPKQAIRDVFKRFGVPEYELTNLTKKIGFKDSLATVYEKSISFRQVINSRTEFQKAFAIAKRIEGNPRQTSIHAAGIVMSDDALTNHIPLKSGDDMMITQYDAHAVEANGLLKMDFLGLRNLTFVQKMQEKVAKDYGCQIDITAIDLEDPQTLALFAKGDTKGIFQFEQNGAINLLKRIKPQRFEEIVATTSLNRPGASDYTTNFIKRREGQEKIDLIDPVIAPILEPTYGIMLYQEQVMQIAQVYAGFTLGKADLLRRAMSKKNLQEMQKMEEDFIASAKHLGRAEETARGLFKRMEKFAGYGFNRSHAFAYSALAFQLAYFKAHYPAVFYDIMMNYSSSDYITDALESDFQVAQVTINSIPYTDKIEASKIYMGLKNIKGLPRDFAYWIIEQRPFNSVEDFLTRTPEKYQKKVFLEPLIKIGLFDCFEPNRKKILDNLDGLLVFVNELGSLFSDSSFSWVDTKDYSVTEKYSLEQEIVGVGMSKHPLIDIAEKSTQTFTPISQLVKESEAVVLIQIDSIRIIRTKTSGQQMAFLSVNDTKKKLDVTLFPQEYAIYKDQLKEGEFYYLKGRIKERDHRLQMVCQQVQMAISQKYWLLVENHQFDSQISEILGAFPGTTPVVIHYQKNKETIALTKIQVTENLKEKLRPFVLKTVFR
Q: With B1 as the molecule, how does the “Speed of primer extension” value [2] read?
A: at least 60 nucleotides/s

Q: What about the “Time to complete M13mp18 primed ssDNA template” value ([2]; absence of β, presence of τδδ′) of the same molecule?
A: ≤ 2 min

B2: Staphylococcus aureus beta subunit (dnaN gene product) (protein)
chain: MMEFTIKRDYFITQLNDTLKAISPRTTLPILTGIKIDAKEHEVILTGSDSEISIEITIPKTVDGEDIVNISETGSVVLPGRFFVDIIKKLPGKDVKLSTNEQFQTLITSGHSEFNLSGLDPDQYPLLPQVSRDDAIQLSVKVLKNVIAQTNFAVSTSETRPVLTGVNWLIQENELICTATDSHRLAVRKLQLEDVSENKNVIIPGKALAELNKIMSDNEEDIDIFFASNQVLFKVGNVNFISRLLEGHYPDTTRLFPENYEIKLSIDNGEFYHAIDRASLLAREGGNNVIKLSTGDDVVELSSTSPEIGTVKEEVDANDVEGGSLKISFNSKYMMDALKAIDNDEVEVEFFGTMKPFILKPKGDDSVTQLILPIRTY
Q: Which Total DNA synthesis on polydA-oligodT, lane 4 (E. coli Pol III core with S. aureus beta; lane 3 without beta 5.1 pmol) [1] does the source give for B2 here?
A: 35.5 pmol

Q: And the stimulation of DNA synthesis by E. coli core on linear polydA-oligodT [1]?
A: 5 fold

Q: And the Total DNA synthesis on polydA-oligodT, lane 2 (Pol III-L with S. aureus beta; lane 1 without beta 4.4 pmol) [3]?
A: 30.3 pmol

Q: And the stimulation of DNA synthesis by Pol III-L on linear polydA-oligodT [3]?
A: 5 fold and 6 fold

Source: patent publication US7432365B1, “DNA molecules encoding beta clamp proteins of gram positive bacteria” (priority 1998, dated 2008)
